What follows are sequences tested on Escherichia coli TOP10 (assay: shrunken log2 fold change of peptide-encoding DNA abundance (4.5 h post-induction vs induction); higher = less antimicrobial activity (less host growth inhibition)). Settings: time post-induction: 4.5 h; library: site-saturation at positions 5, 18, 19, 20.
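Further: peptides expressed intracellularly from a pBAD plasmid library in pooled LB shake-flask culture, induced with 0.3% L-arabinose, DNA abundance read by NGS, three biological replicates, DESeq2 with apeglm shrinkage.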

Sequence	shrunken log2 fold change
RRIRVRPPRLPRPRPRPKICPRP	-0.0576
RRIRNRPPRLPRPRPRPISGPRP	-0.0579
RRIRNRPPRLPRPRPRPRNIPRP	-0.168
RRIRSRPPRLPRPRPRPCTCPRP	-0.177
RRIRGRPPRLPRPRPRPNATPRP	3.1
RRIRDRPPRLPRPRPRPAWNPRP	0.428
RRIRSRPPRLPRPRPRPGSHPRP	-0.104
RRIRRRPPRLPRPRPRPTFMPRP	0.284
RRIRQRPPRLPRPRPRPCQYPRP	-0.00191
RRIRARPPRLPRPRPRPPCVPRP	0.342
RRIRGRPPRLPRPRPRPANYPRP	0.0041
RRIRIRPPRLPRPRPRPHPEPRP	-0.023
RRIRERPPRLPRPRPRPYKLPRP	-1.4
RRIRERPPRLPRPRPRPRTRPRP	0.12
RRIRERPPRLPRPRPRPDWLPRP	0.00866
RRIRVRPPRLPRPRPRPIVEPRP	-0.0668
RRIRQRPPRLPRPRPRPLCYPRP	-0.383
RRIRQRPPRLPRPRPRPKCHPRP	-0.0268
RRIRFRPPRLPRPRPRPCLPPRP	-0.783
RRIRKRPPRLPRPRPRPVRGPRP	0.732
RRIRFRPPRLPRPRPRPLPWPRP	-0.195
RRIRPRPPRLPRPRPRPCVIPRP	-0.222

Sequence	shrunken log2 fold change
RRIRLRPPRLPRPRPRPDKIPRP	-0.494
RRIRARPPRLPRPRPRPHRLPRP	-0.0138
RRIRQRPPRLPRPRPRPCEVPRP	-0.00192
RRIRFRPPRLPRPRPRPGLLPRP	0.032
RRIRIRPPRLPRPRPRPLVRPRP	0.0548
RRIRNRPPRLPRPRPRPPGAPRP	0.665
RRIRYRPPRLPRPRPRPGMGPRP	-0.195
RRIRFRPPRLPRPRPRPQHTPRP	-0.164
RRIRIRPPRLPRPRPRPITIPRP	-0.436
RRIRDRPPRLPRPRPRPMVAPRP	0.00167
RRIRARPPRLPRPRPRPGYLPRP	0.0801
RRIRFRPPRLPRPRPRPCRLPRP	-0.209
RRIRWRPPRLPRPRPRPCCNPRP	-0.0508
RRIRARPPRLPRPRPRPIMWPRP	0.217
RRIRKRPPRLPRPRPRPYSMPRP	-0.39
RRIRGRPPRLPRPRPRPSSKPRP	0.0383
RRIRLRPPRLPRPRPRPQDFPRP	0.0788
RRIRKRPPRLPRPRPRPDWQPRP	-0.0216
RRIRSRPPRLPRPRPRPHNEPRP	-0.382
RRIRIRPPRLPRPRPRPRGWPRP	0.385
RRIRVRPPRLPRPRPRPCRDPRP	-0.4
RRIRVRPPRLPRPRPRPQCDPRP	-0.0528

Sequence	shrunken log2 fold change
RRIRMRPPRLPRPRPRPRWNPRP	0.197
RRIRERPPRLPRPRPRPHGSPRP	-0.15
RRIRTRPPRLPRPRPRPGVSPRP	-0.221
RRIRVRPPRLPRPRPRPYDHPRP	-0.347
RRIRYRPPRLPRPRPRPHQPPRP	-0.748
RRIRMRPPRLPRPRPRPSRIPRP	0.0606
RRIRWRPPRLPRPRPRPAPPPRP	0.579
RRIRARPPRLPRPRPRPYQPPRP	0.589
RRIRQRPPRLPRPRPRPRNDPRP	-0.485
RRIRSRPPRLPRPRPRPRQEPRP	-0.0798
RRIRHRPPRLPRPRPRPFFHPRP	-0.454
RRIRNRPPRLPRPRPRPKGWPRP	0.439
RRIRLRPPRLPRPRPRPNSAPRP	0.0654
RRIRCRPPRLPRPRPRPWAYPRP	-0.508
RRIRLRPPRLPRPRPRPLTNPRP	-0.325
RRIRRRPPRLPRPRPRPHMKPRP	-0.654
RRIRSRPPRLPRPRPRPMWSPRP	0.284
RRIRVRPPRLPRPRPRPQLTPRP	-0.0141
RRIRYRPPRLPRPRPRPTYSPRP	-0.443
RRIRVRPPRLPRPRPRPCGKPRP	-0.15
RRIRYRPPRLPRPRPRPHPMPRP	-0.191
RRIRCRPPRLPRPRPRPEHFPRP	-0.0319

Sequence	shrunken log2 fold change
RRIRKRPPRLPRPRPRPKVEPRP	0.0183
RRIRRRPPRLPRPRPRPMNGPRP	-0.0419
RRIRSRPPRLPRPRPRPWWSPRP	-0.237
RRIRVRPPRLPRPRPRPKNSPRP	-0.34
RRIRDRPPRLPRPRPRPWIYPRP	-0.304
RRIRRRPPRLPRPRPRPHACPRP	0.192
RRIRERPPRLPRPRPRPLSTPRP	-0.48
RRIRKRPPRLPRPRPRPQYYPRP	-0.359
RRIRLRPPRLPRPRPRPYEKPRP	-0.159
RRIRKRPPRLPRPRPRPKEFPRP	0.232
RRIRARPPRLPRPRPRPRAAPRP	0.826
RRIRFRPPRLPRPRPRPMGKPRP	-0.307
RRIRTRPPRLPRPRPRPSRNPRP	-0.0832
RRIRARPPRLPRPRPRPPDPPRP	1
RRIRYRPPRLPRPRPRPKTAPRP	-0.0087
RRIRHRPPRLPRPRPRPIGEPRP	-0.00286
RRIRIRPPRLPRPRPRPIMHPRP	-0.252
RRIRIRPPRLPRPRPRPSPQPRP	-0.512
RRIRQRPPRLPRPRPRPPVPPRP	0.197
RRIRTRPPRLPRPRPRPMDTPRP	0.0257
RRIRIRPPRLPRPRPRPEFTPRP	-0.1
RRIRTRPPRLPRPRPRPSPAPRP	0.133

Sequence	shrunken log2 fold change
RRIRLRPPRLPRPRPRPVQKPRP	0.113
RRIRHRPPRLPRPRPRPPFFPRP	0.168
RRIRARPPRLPRPRPRPADSPRP	0.00021
RRIRPRPPRLPRPRPRPWHPPRP	-0.227
RRIRARPPRLPRPRPRPTEVPRP	0.173
RRIRQRPPRLPRPRPRPDHPPRP	-0.0816
RRIRIRPPRLPRPRPRPSMPPRP	-0.339
RRIRRRPPRLPRPRPRPYSLPRP	-0.0861
RRIRRRPPRLPRPRPRPRVTPRP	0.766
RRIRLRPPRLPRPRPRPTYSPRP	-0.572
RRIRDRPPRLPRPRPRPYMNPRP	-0.665
RRIRLRPPRLPRPRPRPHSAPRP	-0.202
RRIRERPPRLPRPRPRPNKRPRP	-0.164
RRIRGRPPRLPRPRPRPHPEPRP	0.513
RRIRHRPPRLPRPRPRPYCEPRP	-0.114
RRIRLRPPRLPRPRPRPQQYPRP	-0.277
RRIRFRPPRLPRPRPRPMDNPRP	0.000389
RRIRHRPPRLPRPRPRPQMPPRP	-0.232
RRIRVRPPRLPRPRPRPSNCPRP	-0.225
RRIRKRPPRLPRPRPRPIMCPRP	-0.0176
RRIRLRPPRLPRPRPRPLSAPRP	0.0846

Reference: the supplement of paper PMC9112550, “Optimization of the antimicrobial peptide Bac7 by deep mutational scanning” (BMC Biology, 2022)
